The source of these data is US20140096274A1 (published 2014).

The target in assay [1] is T1, murine RANK-Fc (mouse, UniProt O35305 31-214).
T1 construct: also called mRANK-Fc; mRANK-FC; not shown: Fc part of the bought fusion; not described
T1 sequence (looked up): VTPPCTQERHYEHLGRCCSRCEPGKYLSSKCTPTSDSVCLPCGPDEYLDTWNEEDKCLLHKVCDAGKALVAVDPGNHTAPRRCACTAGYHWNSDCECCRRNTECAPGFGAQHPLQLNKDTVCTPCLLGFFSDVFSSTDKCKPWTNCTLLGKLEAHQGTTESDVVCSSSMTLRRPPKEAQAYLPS
As to the kind of experiment: ELISA dose response on RANK-Fc coated wells, global four parameter logistic fit. How it is done: The ability of dimer 1 and dimer 2 to compete with wild-type murine RANKL for binding to mRANK was investigated using a competitive ELISA. […] After washing off unbound RANKL, mRANK bound flag-mRANKL was detected by an anti-flag antibody. A RANKL dimer concentration dependant decrease in mRANK binding and right shift in the EC₅₀ of flag-mRANKL was observed (FIGS. 7 and 18B), indicating a competitive inhibition based mechanism. IC₅₀ values for dimer 1 and dimer 2 were calculated to be 4 nM by a global fit of the individual dose response curves using a four parameter logistic model.
As the concentration of flagRANKL WT used in the competitive ELISA was above its KD for mRANK-Fc, for mD2 also an EC₅₀ shift experiment was performed. A dose-response curve of 0-50 nM flagRANKL WT binding to RANK-Fc was recorded in the presence and absence of various fixed concentrations of D2 (3, 5, 11, 22 or 43 nM) (FIG. 18B and FIG. 7). […] Upon a global fit of the individual dose response curves using a four parameter logistic model, an EC₅₀ for flag-mRANKL WT of 0.6 nM (±0.04 nM) was obtained and for mD2 an A₂ value of 4 nM (±0.5 nM) was calculated, i.e. the concentration of inhibitor required to shift the dose response curve by a factor of 2.

In assay [2] the target is T1, murine RANK-Fc. Put plainly: SPR, mRANK-Fc captured at low density on C1 chip, 1:1 Langmuir fit, mean of three experiments. How it is done:
SPR measurements were performed using ˜1500-2000 RU of captured mRANK-Fc on the surface of a CM5 sensor chip (FIGS. 15B and C). This is a density that results in a mean ratio of RANKL:RANK of approx 1:3 (52). […] (Table 5, below) In contrast, the ratio of binding of RANKL variants mD1 and mD2 to mRANK-Fc seems hardly to be affected by receptor density (Table 5). The values obtained after injecting 500 nM of the dimeric variants correlate to binding of 1.5 monomeric subunits by mD1 and 1.6 monomeric subunits by mD2.
Kinetic binding parameters were also measured for mD1 and mD2 binding to mRANK-FC in real time using SPR using murine RANKL-WT as a control (FIG. 15; table 8). RANKL dimer binding curves to mRANK-Fc captured at low density on the surface of a C1 sensorchip were recorded using concentrations ranging from 100 pM to 562 nM. At very low receptor density, RANKL proteins bind only one receptor molecule, allowing the data to be fitted to a Langmuir 1:1 interaction model (29). RANKL WT needed a very low density (<20 resonance units (RU)) to come close to a 1:1 ratio (FIG. 3A). […] Maximum binding of 5.5 RU is reached, which is slightly lower than the expected Rₘₐₓ value of 6.8 RU for a 1:1 ratio, but definitely larger than 3.4 RU, the Rₘₐₓ value expected for a binding ratio of 2 molecules of RANK per flag-mRANKL WT trimer. Similar to mRANKL WT, binding of RANKL mD1 or mD2 to mRANK-Fc results in slightly lower Rₘₐₓ values than expected for a 1:1 binding ratio: 24 RU D1 compared to 26 RU, and 20 RU D2 compared to 23 RU (FIG. 15A). These binding ratio's could be reached with mD1 and mD2 at densities of mRANK-Fc of <50 RU. The approximate 1:1 binding of RANKL proteins to mRANK-Fc allows fitting the data to the 1:1 Langmuir binding model.

The target of assay [3] is T1, murine RANK-Fc. As to the kind of experiment: SPR single cycle kinetics, mRANK-Fc captured at 20-40 RU, 1:1 fit. How it is done: (§1) Considering the high similarity between human RANKL and murine RANKL (>88%) the murine dimers were also tested for hRANK binding. Binding to hRANK-Fc and mRANK-Fc (both from R&D Systems) was recorded for five consecutive concentrations of murine flag RANKL WT, D1 (mD1) or D2 (mD2) (˜0.3-15 nM) using SPR with a single cycle kinetics based approach. The capture level of mRANK-Fc and hRANK-Fc was low (20-40 RU) in order to ensure 1:1 binding. Both WT and the D1 and D2 dimeric variants bound with high affinity towards the mRANK receptor and to the human RANK receptor (FIG. 16: Table 8).

The target of assay [4] is T2, human RANK-Fc (human, UniProt Q9Y6Q6 30-212).
T2 construct: also called hRANK-Fc; hRANK-FC; not shown: Fc part of the bought fusion; not described
T2 sequence (looked up): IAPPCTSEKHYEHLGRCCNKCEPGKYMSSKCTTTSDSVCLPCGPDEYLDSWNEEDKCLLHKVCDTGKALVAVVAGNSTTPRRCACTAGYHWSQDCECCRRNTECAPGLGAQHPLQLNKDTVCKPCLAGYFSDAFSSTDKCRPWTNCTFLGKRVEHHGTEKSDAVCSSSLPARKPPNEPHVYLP
As to the kind of experiment: SPR single cycle kinetics, hRANK-Fc captured at 20-40 RU, 1:1 fit. The procedure: as §1

Assay [5] deals with T2, human RANK-Fc. Put plainly: SPR (Biacore), hRANK-Fc captured on protein A at 40 RU, 37 C, 1:1 Langmuir fit. How it is done:
A Biacore experiment was performed to determine the kinetics of binding of the dimeric variants. hRANK-FC (Sigma) was captured in flow cell 2 at a level of 40 RU by a 60 s injection pulse of a 0.7 ug/ml hRANK-FC solution at a flow rate of 50 uL/min. Flow cell 1 served as reference cell. Subsequently, serial dilutions ranging from 562 nM to 100 pM of murine RANKL wt (R&D systems), or the purified RANKL dimers mD1 and mD2 were injected over both flow cells at 50 uL/min and 37° C. Binding was measured in real time. After each cycle the protein A surface was regenerated with a 30 s pulse of 10 mM Glycine pH 1.5. Kd values were calculated by fitting the data to a langmuir 1:1 binding model using the BIAevaluation software as described before (30). (Table 6 and FIG. 6).
Kinetic binding parameters were measured in real time using SPR. RANKL dimer binding curves were recorded using concentrations ranging from 100 pM to 562 nM dimer 1 (mD1) or dimer 2 (mD2), trimeric murine wild-type RANKL was used as a control. Measurements were performed at 37° C. The dissociation constants (KD) were determined by fitting the data to a Langmuir 1:1 interaction model. […] The binding off-rate constant (koff) of wild-type murine RANKL was ˜2 to 6 fold slower than for dimer 1 and dimer 2.

In assay [6] the target is T1, murine RANK-Fc. As to the kind of experiment: ELISA, immobilized mRANK-Fc, % binding normalised to the highest concentration.

B1: murine flagRANKL WT (wild-type mRANKL containing an N-terminal flagtag) (ligand, mouse, UniProt O35235 160-316, looked up)
chain: EAQPFAHLTINAASIPSGSHKVTLSSWYHDRGWAKISNMTLSNGKLRVNQDGFYYLYANICFRHHETSGSVPTDYLQLMVYVVKTSIKIPSSHNLMKGGSTKNWSGNSEFHFYSINVGGFFKLRAGEEISIQVSNPSLLDPDQDATYFGAFKVQDID
notes: Trimeric; also called flag-mRANKL WT; mWT; not shown: N-terminal flagtag
Turning to B1, the EC50 in assay [1] came out at 0.6 nM. Also, in assay [2], the Ka is 4.4e+10 M⁻¹, the Kd was 0.065 nM, the koff was 0.00034 s⁻¹ and the kon was 5.9e+06 M⁻¹ s⁻¹. In addition, in assay [3], the Kd amounted to 0.0315 nM, the koff stood at 0.000189 s⁻¹ and the kon is 6.14e+06 M⁻¹ s⁻¹. Moreover, in assay [4], the affinity, expressed as Kd, was 0.104 nM; the koff was found to be 0.000575 s⁻¹; the kon came to 5.63e+06 M⁻¹ s⁻¹.

B2: trimeric murine wild-type RANKL (R&D systems) (ligand, mouse, UniProt O35235 158-316, looked up)
chain: KPEAQPFAHLTINAASIPSGSHKVTLSSWYHDRGWAKISNMTLSNGKLRVNQDGFYYLYANICFRHHETSGSVPTDYLQLMVYVVKTSIKIPSSHNLMKGGSTKNWSGNSEFHFYSINVGGFFKLRAGEEISIQVSNPSLLDPDQDATYFGAFKVQDID
notes: Bought soluble trimeric protein; also called murine RANKL wt; mRANKL WT
As to B2, in assay [5], the Ka came out at 9.23e+09 M⁻¹, the Kd was found to be 0.11 nM, the koff turned out to be 8.97e-05 s⁻¹ and the on-rate constant (kon) was determined as 827000 M⁻¹ s⁻¹. The “EC50 (read off the curve)” value in assay [6] was ~0.1 nM.
